Test results taken from publication PMC11879086, “Identification and characterization of a human MORC2 DNA binding region that is required for gene silencing” (Nucleic Acids Research, 2024).
Positions count from the first letter of the chain named.

Experiments:
[1] = target: T1, MORC2 subset N (Homo sapiens, UniProt Q9Y6X9 1-1032, K704D;R707D;K713D;K716D;K721D;K722D); assay: fluorescence anisotropy; apo; FA/EMSA: 50 mM NaCl, 3 mM MgCl2, 20 mM Na-HEPES pH 7.4, 1 mM TCEP, 10% glycerol, 0.025 mM ZnCl2, 50 ug/ml BSA, room temperature; 1 nM nucleic acid (FA) or 20 nM DNA (EMSA); conditions: protein: recombinant; tags: tag removed by TEV; chain copies: 2; label: 5'-6-FAM; blunt
T1 sequence: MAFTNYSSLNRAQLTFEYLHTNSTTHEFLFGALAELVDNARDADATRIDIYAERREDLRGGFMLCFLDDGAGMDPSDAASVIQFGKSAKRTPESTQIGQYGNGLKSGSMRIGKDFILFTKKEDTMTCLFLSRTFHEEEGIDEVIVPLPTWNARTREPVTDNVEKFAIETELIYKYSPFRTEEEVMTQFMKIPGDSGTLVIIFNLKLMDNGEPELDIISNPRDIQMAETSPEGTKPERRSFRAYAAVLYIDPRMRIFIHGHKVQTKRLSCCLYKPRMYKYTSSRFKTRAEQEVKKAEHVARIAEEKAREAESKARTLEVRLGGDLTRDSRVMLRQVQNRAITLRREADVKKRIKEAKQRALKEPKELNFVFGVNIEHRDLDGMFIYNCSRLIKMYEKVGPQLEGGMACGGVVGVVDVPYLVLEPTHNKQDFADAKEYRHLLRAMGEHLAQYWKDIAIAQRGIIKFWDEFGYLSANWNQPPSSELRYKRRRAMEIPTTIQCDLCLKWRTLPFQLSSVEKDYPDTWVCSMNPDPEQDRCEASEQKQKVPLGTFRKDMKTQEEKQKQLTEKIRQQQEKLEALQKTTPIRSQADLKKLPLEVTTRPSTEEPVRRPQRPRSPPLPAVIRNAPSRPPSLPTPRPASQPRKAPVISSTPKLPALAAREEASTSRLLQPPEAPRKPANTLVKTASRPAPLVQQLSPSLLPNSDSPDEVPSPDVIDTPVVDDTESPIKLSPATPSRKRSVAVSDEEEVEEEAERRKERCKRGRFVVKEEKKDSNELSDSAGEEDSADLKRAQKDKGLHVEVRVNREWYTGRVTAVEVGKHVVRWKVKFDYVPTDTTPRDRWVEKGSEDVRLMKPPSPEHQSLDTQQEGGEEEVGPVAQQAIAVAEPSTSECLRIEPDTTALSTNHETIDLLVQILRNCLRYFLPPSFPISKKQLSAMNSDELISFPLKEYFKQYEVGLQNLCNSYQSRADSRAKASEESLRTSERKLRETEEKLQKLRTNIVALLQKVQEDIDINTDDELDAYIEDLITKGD

[2] = target: T2, MORC2 dephosphorylated (wild-type) (Homo sapiens, UniProt Q9Y6X9 1-1032); assay: fluorescence anisotropy; apo; second listing ('5 or less'); FA/EMSA: 50 mM NaCl, 3 mM MgCl2, 20 mM Na-HEPES pH 7.4, 1 mM TCEP, 10% glycerol, 0.025 mM ZnCl2, 50 ug/ml BSA, room temperature; 1 nM nucleic acid (FA) or 20 nM DNA (EMSA); conditions: protein: recombinant; tags: tag removed by TEV; chain copies: 2; label: 5'-6-FAM; blunt
T2 sequence: T1 sequence with D704K, D707R, D713K, D716K, D721K, D722K

B1: Random 35mer dsDNA (dsDNA)
DNA 1: ATAGGGTCCATCAGAATTCGGATGAACTCGGTGTG
DNA 2: CACACCGAGTTCATCCGAATTCTGATGGACCCTAT
Kd [1]: 90 ± 20 nM | Kd [2]: < 5 nM
